Assay results reported in patent US20260209359A1 (NEXTERA, published 2026).

Assays:
[1] = target: T1, HLA-A*02:01/MAGE-A4^230-239 displayed on cells (MAGE-A4^230-239 pulsed T2 cells; NCI-H1703, A375, THP1, … (human, UniProt P04439 25-365 at identity 0.94); P61769 21-119); assay: cell-based or functional assay
[2] = target: T1, HLA-A*02:01/MAGE-A4^230-239 displayed …; assay: cell-based or functional assay; remark: listed apart in the source
[3] = target: T2, HLA-A*02:01/MAGE-A4^230-239, soluble recombinant biotinylated pHLA (human, UniProt P04439 25-299 at identity 0.94); P61769 21-119, biotinylated); assay: ELISA, soluble biotinylated pHLA on neutravidin, scDb, protL-HRP
T2 construct: Empty biotinylated HLA-A2 monomers (Tetramer Shop) loaded with synthetic peptide; also called MAGE-A4 pMHC; MAGE-A4-pHLA
Experimental: ELISA plates were coated with 5 μg/mL NeutrAvidin in PBS and incubated 16 h/4° C. (step (a)) and blocked with 5% skim milk powder in PBST for 1 h/room temperature (RT) (step (c)). […] Bound phage particles were detected with an anti-Fd antibody (anti-M13-HRP (Amersham Biosciences)), whereas bound IgG1 and scDb was detected with HRP conjugated protein L (Genscript) (step (i)). […] Plates were developed with TMB solution and read at 450 nm using a microplate reader (step (k)). Between each layer, the plates were washed 3× with PBST (steps (b), (d), (f), (h), and (j)).

[4] = target: T1, HLA-A*02:01/MAGE-A4^230-239 displayed …; assay: cell-based or functional assay; remark: listed apart in the source
[5] = target: T1, HLA-A*02:01/MAGE-A4^230-239 displayed …; assay: cell-based or functional assay; remark: listed apart in the source

Row | Binder | EC50 vs. NCI-H1703 (pM), T-cell specific killing [1] [pM] | IFNγ EC50 vs. target positive cells (pM) [2] [pM] | EC50 [3] [nM] | EC50 vs. A375 (pM), T-cell specific killing [4] [pM] | EC50 vs. C-33-A (pM), T-cell specific killing [5] [pM] | EC50 vs. HuTu80 (pM), T-cell specific killing [5] [pM]
1 | AM16 scDb (bispecific antibody, as m68) DIQLTQSPSSLSASVGDRVTISCRASQSIMTYLNWYQQRPGKAPKLLIYSASRLQSGVPSRFSGSGYGTEFTLTISSLQPEDFATYYCQQSYSTPFTFGPGTKVDIKGGGGSEVQLQQSGPELVKPGASMKISCKASGYSFTGYTMNWVKQSHGKNLEWMGLINPYKGVSTYNQKFKDKATLTVDKSSSTAYMELLSLTSEDSAVYYCARSGYYGDSDWYFDVWGAGTTVTVSSGGGGSGGGGSGGGGSDIQMTQTTSSLSASLGDRVTISCRASQDIRNYLNWYQQKPDGTVKLLIYYTSRLHSGVPSKFSGSGSGTDYSLTISNLEQEDIATYFCQQGNTLPWTFAGGTKLEIKGGGGSQVQLVQSGAEVKKPGASVKVSCKVSGYTLTELSMHWVRQAPGKGLEWMGGFDPEDGETIYAQKFQGRVTMTEDTSTDTAYMELSSLRSEDTAVYYCATDQGSSWGFYWGQGTLVTVSS | 5.3 | 12.3 | 1.85 | – | – | –
2 | AM2 scDb (bispecific antibody, VLA-VHB-VLB-VHA, anti-CD3 UCHT1) DIRVTQSPSSLSASVGDRVTITCRASQNIMWYLNWYQQKPGKAPKLLIYAASSLQSGVPSRFSGSGSGTDFTLTISSLQPEDFATYYCQQSYSTPYTFGQGTKLEIKGGGGSEVQLQQSGPELVKPGASMKISCKASGYSFTGYTMNWVKQSHGKNLEWMGLINPYKGVSTYNQKFKDKATLTVDKSSSTAYMELLSLTSEDSAVYYCARSGYYGDSDWYFDVWGAGTTVTVSSGGGGSGGGGSGGGGSDIQMTQTTSSLSASLGDRVTISCRASQDIRNYLNWYQQKPDGTVKLLIYYTSRLHSGVPSKFSGSGSGTDYSLTISNLEQEDIATYFCQQGNTLPWTFAGGTKLEIKGGGGSQVQLVQSGAEVKKPGASVKVSCKVSGYTLTELSMHWVRQAPGKGLEWMGGFDPEDGETIYAQKFQGRVTMTEDTSTDTAYMELSSLRSEDTAVYYCATDQGSSWGFYWGQGTLVTVSS | 2.2 | 4.4 | 0.32 | 3.7 | 7.2 | 7.8
3 | AM18 scDb (bispecific antibody, as m68) DIRLTQSPSSLSVSVGDRVTITCRASEDIRYYVNWYQQKPGKAPKLLIYAASSLQSGVPSRFSGSGSGTDFTLTISSLQPEDFATYYCQQSYSTPYTFGQGTKLEIKGGGGSEVQLQQSGPELVKPGASMKISCKASGYSFTGYTMNWVKQSHGKNLEWMGLINPYKGVSTYNQKFKDKATLTVDKSSSTAYMELLSLTSEDSAVYYCARSGYYGDSDWYFDVWGAGTTVTVSSGGGGSGGGGSGGGGSDIQMTQTTSSLSASLGDRVTISCRASQDIRNYLNWYQQKPDGTVKLLIYYTSRLHSGVPSKFSGSGSGTDYSLTISNLEQEDIATYFCQQGNTLPWTFAGGTKLEIKGGGGSQVQLVQSGAEVKKPGASVKVSCKVSGYTLTELSMHWVRQAPGKGLEWMGGFDPEDGETIYAQKFQGRVTMTEDTSTDTAYMELSSLRSEDTAVYYCATDQGSSWGFYWGQGTLVTVSS | 4.4 | 9.5 | 0.51 | – | – | –
4 | AM3 scDb (bispecific antibody, as m68) DIRVTQSPSSLSASVGDRVTITCRADHHIFWYLNWYQQKPGKAPKLLIYAASSLQSGVPSRFSGSGSGTDFTLTISSLQPEDFATYYCQQSYSTPYTFGQGTKLEIKGGGGSEVQLQQSGPELVKPGASMKISCKASGYSFTGYTMNWVKQSHGKNLEWMGLINPYKGVSTYNQKFKDKATLTVDKSSSTAYMELLSLTSEDSAVYYCARSGYYGDSDWYFDVWGAGTTVTVSSGGGGSGGGGSGGGGSDIQMTQTTSSLSASLGDRVTISCRASQDIRNYLNWYQQKPDGTVKLLIYYTSRLHSGVPSKFSGSGSGTDYSLTISNLEQEDIATYFCQQGNTLPWTFAGGTKLEIKGGGGSQVQLVQSGAEVKKPGASVKVSCKVSGYTLTELSMHWVRQAPGKGLEWMGGFDPEDGETIYAQKFQGRVTMTEDTSTDTAYMELSSLRSEDTAVYYCATDQGSSWGFYWGQGTLVTVSS | 3.4 | 5.8 | 0.48 | – | – | –
5 | AM12 scDb (bispecific antibody, as m68) DIRVTQSPSSLSASVGDRVTITCRASQNIMWYLNWYQQKPGKAPKLLIYAASSLQSGVPSRFSGSGSGTDFTLTISSLQPEDFATYYCQQSYSTPYTFGQGTKLEIKGGGGSEVQLQQSGPELVKPGASMKISCKASGYSFTGYTMNWVKQSHGKNLEWMGLINPYKGVSTYNQKFKDKATLTVDKSSSTAYMELLSLTSEDSAVYYCARSGYYGDSDWYFDVWGAGTTVTVSSGGGGSGGGGSGGGGSDIQMTQTTSSLSASLGDRVTISCRASQDIRNYLNWYQQKPDGTVKLLIYYTSRLHSGVPSKFSGSGSGTDYSLTISNLEQEDIATYFCQQGNTLPWTFAGGTKLEIKGGGGSQVQLVQSGAEVKKPGASVKVSCKVSGYTLTELSMHWVRQAPGKGLEWMGGFDPEQGETIYAQKFQGRVTMTEDTSTDTAYMELSSLRSEDTAVYYCATDQGASWGFYWGQGTLVTVSS | 4.3 | 6.4 | 0.12 | – | – | –
6 | AMC11 scDb (bispecific antibody, as m68) DIRVTQSPSSLSASVGDRVTITCRASQNIMWYLNWYQQKPGKAPKLLIYAASSLQSGVPSRFSGSGSGTDFTLTISSLQPEDFATYYCQQAYRIPYTFGQGTKLEIKGGGGSEVQLQQSGPELVKPGASMKISCKASGYSFTGYTMNWVKQSHGKNLEWMGLINPYKGVSTYNQKFKDKATLTVDKSSSTAYMELLSLTSEDSAVYYCARSGYYGDSDWYFDVWGAGTTVTVSSGGGGSGGGGSGGGGSDIQMTQTTSSLSASLGDRVTISCRASQDIRNYLNWYQQKPDGTVKLLIYYTSRLHSGVPSKFSGSGSGTDYSLTISNLEQEDIATYFCQQGNTLPWTFAGGTKLEIKGGGGSQVQLVQSGAEVKKPGASVKVSCKVSGYTLTELSMHWVRQAPGKGLEWMGGFDPEDGETIYAQKFQGRVTMTEDTSTDTAYMELSSLRSEDTAVYYCATDQGSSWGFYWGQGTLVTVSS | 0.72 | 8.5 | 0.81 | 2.3 | – | –
7 | AM4 scDb (bispecific antibody, as m68) DIRVTQSPSSLSASVGDRVTITCRADIDIRWYLNWYQQKPGKAPKLLIYAASSLQSGVPSRFSGSGSGTDFTLTISSLQPEDFATYYCQQSYSTPYTFGQGTKLEIKGGGGSEVQLQQSGPELVKPGASMKISCKASGYSFTGYTMNWVKQSHGKNLEWMGLINPYKGVSTYNQKFKDKATLTVDKSSSTAYMELLSLTSEDSAVYYCARSGYYGDSDWYFDVWGAGTTVTVSSGGGGSGGGGSGGGGSDIQMTQTTSSLSASLGDRVTISCRASQDIRNYLNWYQQKPDGTVKLLIYYTSRLHSGVPSKFSGSGSGTDYSLTISNLEQEDIATYFCQQGNTLPWTFAGGTKLEIKGGGGSQVQLVQSGAEVKKPGASVKVSCKVSGYTLTELSMHWVRQAPGKGLEWMGGFDPEDGETIYAQKFQGRVTMTEDTSTDTAYMELSSLRSEDTAVYYCATDQGSSWGFYWGQGTLVTVSS | 3.1 | 4.5 | 0.28 | – | – | –
8 | AM5 scDb (bispecific antibody, as m68) DIRVTQSPSSLSASVGDRVTITCRASQSISSYLNWYQQKPGKAPKLLIYAASSLQSGVPSRFSGSGSGTDFTLTISSLQPEDFATYYCQQAYRIPYTFGQGTKLEIKGGGGSEVQLQQSGPELVKPGASMKISCKASGYSFTGYTMNWVKQSHGKNLEWMGLINPYKGVSTYNQKFKDKATLTVDKSSSTAYMELLSLTSEDSAVYYCARSGYYGDSDWYFDVWGAGTTVTVSSGGGGSGGGGSGGGGSDIQMTQTTSSLSASLGDRVTISCRASQDIRNYLNWYQQKPDGTVKLLIYYTSRLHSGVPSKFSGSGSGTDYSLTISNLEQEDIATYFCQQGNTLPWTFAGGTKLEIKGGGGSQVQLVQSVAEVKKPGASVKVSCKVSGYTLTELSMHWVRQAPGKGLEWMGGFDPEDGETIYAQKFQGRVTMTEDTSTDTAYMELSSLRSEDTAVYYCAADQGSSWGFYWGQGTLVTVSS | 6.4 | 9 | 1.03 | – | – | –
9 | AMC8 scDb (bispecific antibody, as m68) DIRLTQSPSSLSASVGDRVTMTCRASQTVATYVNWYQQKPGRAPKLLMYVTSIRQSEVPSRFSGDGFGTDFTLTINPLQPDDFATYYCQQAYSTPVTFGQGTKLEIKGGGGSEVQLQQSGPELVKPGASMKISCKASGYSFTGYTMNWVKQSHGKNLEWMGLINPYKGVSTYNQKFKDKATLTVDKSSSTAYMELLSLTSEDSAVYYCARSGYYGDSDWYFDVWGAGTTVTVSSGGGGSGGGGSGGGGSDIQMTQTTSSLSASLGDRVTISCRASQDIRNYLNWYQQKPDGTVKLLIYYTSRLHSGVPSKFSGSGSGTDYSLTISNLEQEDIATYFCQQGNTLPWTFAGGTKLEIKGGGGSQVQLVQSGAEVKKPGASVKVSCKVSGYTLTELSMHWVRQAPGKGLEWMGGFDPEDGETIYAQKFQGRVTMTEDTSTDTAYMELSSLRSEDTAVYYCATDQGASWGFYWGQGTLVTVSS | 2.51 | 7.7 | 0.88 | 1.6 | – | –
